Drawing on PMC5177656, “Cytosolic Triosephosphate Isomerase from Arabidopsis thaliana Is Reversibly Modified by Glutathione on Cysteines 127 and 218” (Frontiers in Plant Science, 2016), this text covers Km, kcat and kcat/Km for four proteins.

One may read the Km as the concentration of substrate that gives half-maximal velocity. For orientation: kcat means the number of substrate molecules converted per active site and unit of time at saturation. What is called kcat/Km is the second-order rate constant that governs catalysis at low substrate concentration.

B1: cTPI (cytosolic triosephosphate isomerase) (Arabidopsis thaliana) (protein)
chain: MARKFFVGGNWKCNGTAEEVKKIVNTLNEAQVPSQDVVEVVVSPPYVFLPLVKSTLRSDFFVAAQNCWVKKGGAFTGEVSAEMLVNLDIPWVILGHSERRAILNESSEFVGDKVAYALAQGLKVIACVGETLEEREAGSTMDVVAAQTKAIADRVTNWSNVVIAYEPVWAIGTGKVASPAQAQEVHDELRKWLAKNVSADVAATTRIIYGGSVNGGNCKELGGQADVDGFLVGGASLKPEFIDIIKAAEVKKSA
notes: tag removal not mentioned
B2: cTPI (cytosolic triosephosphate isomerase) (Arabidopsis thaliana; C127S) (protein)
chain: MARKFFVGGNWKCNGTAEEVKKIVNTLNEAQVPSQDVVEVVVSPPYVFLPLVKSTLRSDFFVAAQNCWVKKGGAFTGEVSAEMLVNLDIPWVILGHSERRAILNESSEFVGDKVAYALAQGLKVIASVGETLEEREAGSTMDVVAAQTKAIADRVTNWSNVVIAYEPVWAIGTGKVASPAQAQEVHDELRKWLAKNVSADVAATTRIIYGGSVNGGNCKELGGQADVDGFLVGGASLKPEFIDIIKAAEVKKSA
notes: tag removal not mentioned
B3: cTPI (cytosolic triosephosphate isomerase) (Arabidopsis thaliana; C218S) (protein)
chain: MARKFFVGGNWKCNGTAEEVKKIVNTLNEAQVPSQDVVEVVVSPPYVFLPLVKSTLRSDFFVAAQNCWVKKGGAFTGEVSAEMLVNLDIPWVILGHSERRAILNESSEFVGDKVAYALAQGLKVIACVGETLEEREAGSTMDVVAAQTKAIADRVTNWSNVVIAYEPVWAIGTGKVASPAQAQEVHDELRKWLAKNVSADVAATTRIIYGGSVNGGNSKELGGQADVDGFLVGGASLKPEFIDIIKAAEVKKSA
notes: tag removal not mentioned
B4: cTPI (cytosolic triosephosphate isomerase) (Arabidopsis thaliana; C127S/C218S) (protein)
chain: MARKFFVGGNWKCNGTAEEVKKIVNTLNEAQVPSQDVVEVVVSPPYVFLPLVKSTLRSDFFVAAQNCWVKKGGAFTGEVSAEMLVNLDIPWVILGHSERRAILNESSEFVGDKVAYALAQGLKVIASVGETLEEREAGSTMDVVAAQTKAIADRVTNWSNVVIAYEPVWAIGTGKVASPAQAQEVHDELRKWLAKNVSADVAATTRIIYGGSVNGGNSKELGGQADVDGFLVGGASLKPEFIDIIKAAEVKKSA
notes: tag removal not mentioned

Substrate in this series: O=CC(O)COP(=O)(O)O
Description: coupled assay with alpha-glycerophosphate dehydrogenase, NADH consumption. In kind it is biochemical, Arabidopsis thaliana. To be noted: pH 7.8, 30°C, 100 mM Tris-Cl, 5 mM DTT, GAP 0-4 mM (from DL-GAP). From the text: coupled assay with alpha-glycerophosphate dehydrogenase, NADH consumption on cTPI (cytosolic triosephosphate isomerase)
On to B1, for which the Km was 1.32 ± 0.06 mM, the kcat came out at 3410 ± 269 s⁻¹ and the kcat/Km was found to be 2.58e+06 ± 321000 M⁻¹ s⁻¹.
Turning to B2, the Km stood at 0.48 ± 0.04 mM, the kcat was found to be 70.4 ± 7.4 s⁻¹ and the kcat/Km worked out at 147000 ± 28000 M⁻¹ s⁻¹.
For B3 the same measures were 1.68 ± 0.03 mM, 2690 ± 73 s⁻¹ and 1.6e+06 ± 72000 M⁻¹ s⁻¹.
The corresponding values for B4 are 0.50 ± 0.06 mM, 14.8 ± 0.8 s⁻¹ and 29600 ± 5200 M⁻¹ s⁻¹.
